# Source: doi:10.1101/2020.04.23.053322
# Read-outs that look alike come from different tables or passages of the source.
# Tests used:
# [1] = molecular target: ATF6-CFP (human ATF6 fused to mCerulean on the C-terminal side) (human) (UniProt P18850); test: FRET or BRET
# [2] = molecular target: ATF6-CFP (human ATF6 fused to mCerulean on the C-terminal side) (human) (UniProt P18850); test: FRET or BRET; remark: listed apart in the source
# Chain of UniProt P18850 (P18850 whole entry, the tested form may be a part): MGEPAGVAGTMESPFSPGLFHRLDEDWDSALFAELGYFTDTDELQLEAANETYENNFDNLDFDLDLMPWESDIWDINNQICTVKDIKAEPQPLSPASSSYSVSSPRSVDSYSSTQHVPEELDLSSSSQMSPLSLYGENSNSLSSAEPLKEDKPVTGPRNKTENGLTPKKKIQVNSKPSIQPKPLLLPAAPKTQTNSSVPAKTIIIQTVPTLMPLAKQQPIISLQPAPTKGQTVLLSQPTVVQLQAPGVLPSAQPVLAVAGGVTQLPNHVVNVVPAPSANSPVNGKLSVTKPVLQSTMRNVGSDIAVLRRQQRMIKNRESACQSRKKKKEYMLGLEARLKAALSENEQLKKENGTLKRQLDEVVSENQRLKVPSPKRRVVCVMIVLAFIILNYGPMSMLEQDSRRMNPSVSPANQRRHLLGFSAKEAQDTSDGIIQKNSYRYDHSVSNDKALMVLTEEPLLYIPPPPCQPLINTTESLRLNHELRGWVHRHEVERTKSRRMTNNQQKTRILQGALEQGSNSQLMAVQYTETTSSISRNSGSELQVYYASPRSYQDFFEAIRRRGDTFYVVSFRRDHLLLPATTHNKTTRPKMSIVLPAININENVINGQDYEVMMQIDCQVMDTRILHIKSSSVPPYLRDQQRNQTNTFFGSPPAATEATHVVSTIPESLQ
substance,measurement,setting,value
mVenus-tagged sorcin (YFP-SRI) (from UniProt P30626 1-198) (natural protein),FRET efficiency,[1],11.7%
same,FRET efficiency,[2],11.4%
